Measured values from publication PMC2821400.

Target: actin of the F-actin structures in focal adhesions of Vero cells (monkey (endogenous in Vero)) (UniProt Q76N69)
Test: FRAP (fluorescence recovery after photobleaching); GFP-L-plastin variants bleached in a 5 µm spot in focal adhesions of live Vero cells, 37°C; curves fitted with a two-binding-state model, reaction dominant regime; pseudo-association rates k*on = kon·Seq

fold change of k*2on against WT- and S5/E-L-plastin [fold lower] | k1off (dissociation rate, first quick binding state) [s⁻¹] | k*1on (pseudo-association rate, first quick binding state) [s⁻¹] | Feq (equilibrium normalized concentration of free molecules) | k2off (dissociation rate, second slow binding state) [s⁻¹] | k*2on (pseudo-association rate, second slow binding state) [s⁻¹] | Substance
2 | 0.073 | 0.173 |  |  |  | Ser5/Ala (S5/A) GFP-L-plastin, expressed in Vero cells (from UniProt P13796 1-627) (natural protein)
 | 0.612 | 0.42 |  |  |  | Ser5/Glu (S5/E) GFP-L-plastin, expressed in Vero cells (from UniProt P13796 1-627) (natural protein)
 | 0.616 | 0.338 | 0.513 | 0.03 | 0.01 | wild type (WT) L-plastin fused to GFP, expressed in Vero cells (from UniProt P13796 1-627) (natural protein)
